Measured values reported in patent EP3470428A1 (Numab Innovation AG, dated 2019).
“And” between values parts separate entries of the source, which are not always exact repeats. Equal values may be shown once. Read-outs that look alike come from different tables or passages of the source.

B1: PRO951: 38-27-C05 sc02 scDb-i/33-03-G02 sc01 scDb-o (bispecific antibody)
chain: DIQMTQSPSSLSASVGDRVTITCQASQSINDYLAWYQQKPGKAPKLLIYKASTLASGVPSRFSGSGSGTDFTLTISSLQPEDFATYYCQQGYIITDIDNVFGTGTKVTVLGGGGGSEVQLVESGGGLVQPGGSLRLSCAASGFSFNNDYDMCWVRQAPGKGLEWIGCIDTGDGSTYYASWAKGRFTISRDNSKNTVYLQMNSLRAEDTAVYYCAREAASSSGYGMGYFDLWGQGTLVTVSSGGGGSGGGGSGGGGSGGGGSIQMTQSPSSLSASVGDRVTITCQSSQSVYDNNWLAWYQQKPGKAPKLLIYRASNLASGVPSRFSGSGSGTDFTLTISSLQPEDFATYYCQGTYLSSNWYWAFGTGTKVTVLGGGGGSQVQLQESGPGLVKPSETLSLTCKVSGFSFSSGYDMCWIRQPPGKGLEWIGCVVAGSVDITYYASWAKGRVTISVDSSKNQFSLKLSSVTAADTAVYYCARKDAYSDAFNLWGQGTLVTVSS
notes: anti-PD-L1xCD137 scDb
B2: PRO885: 38-02-A04 sc01 scDb-i/33-03-G02 sc01 scDb-o (bispecific antibody)
chain: DIQMTQSPSSLSASVGDRVTITCQASQSINDYLAWYQQKPGKAPKLLIYKASTLASGVPSRFSGSGSGTDFTLTISSLQPEDFATYYCQQGYIITDIDNVFGTGTKVTVLGGGGGSQVQLQESGPGLVKPSETLSLTCKVSGFSFSNSYWICWIRQPPGKGLEWIGCTFVGSSDSTYYANWAKGRVTISVDSSKNQFSLKLSSVTAADTAVYYCARHPSDAVYGYANNLWGQGTLVTVSSGGGGSGGGGSGGGGSGGGGSIQMTQSPSSLSASVGDRVTITCQASQSINNVLAWYQQKPGKAPKLLIYRASTLASGVPSRFSGSGSGTDFTLTISSLQPEDFATYYCQSSYGNYGDFGTGTKVTVLGGGGGSQVQLQESGPGLVKPSETLSLTCKVSGFSFSSGYDMCWIRQPPGKGLEWIGCVVAGSVDITYYASWAKGRVTISVDSSKNQFSLKLSSVTAADTAVYYCARKDAYSDAFNLWGQGTLVTVSS
notes: anti-PD-L1xCD137 scDb, CDR grafts of both domains
B3: Urelumab (antibody, V domains shown)
VH: QVQLQQWGAGLLKPSETLSLTCAVYGGSFSGYYWSWIRQSPEKGLEWIGEINHGGYVTYNPSLESRVTISVDTSKNQFSLKLSSVTAADTAVYYCARDYGPGNYDWYFDLWGRGTLVTVSS
VL: EIVLTQSPATLSLSPGERATLSCRASQSVSSYLAWYQQKPGQAPRLLIYDASNRATGIPARFSGSGSGTDFTLTISSLEPEDFAVYYCQQRSNWPPALTFGGGTKVEIK
B4: PRO1058: 38_27_C05 sc01 scDb-i/33-03-G02 sc01 scDb-o/mxr HSA (23-13-A01-sc03, sk17sh4) (other)
chain: DIQMTQSPSSLSASVGDRVTITCQASQSINDYLAWYQQKPGKAPKLLIYKASTLASGVPSRFSGSGSGTDFTLTISSLQPEDFATYYCQQGYIITDIDNVFGTGTKVTVLGGGGGSQVQLQESGPGLVKPSETLSLTCKVSGFSFNNDYDMCWIRQPPGKGLEWIGCIDTGDGSTYYASWAKGRVTISVDSSKNQFSLKLSSVTAADTAVYYCAREAASSSGYGMGYFDLWGQGTLVTVSSGGGGSGGGGSGGGGSGGGGSIQMTQSPSSLSASVGDRVTITCQSSQSVYDNNWLAWYQQKPGKAPKLLIYRASNLASGVPSRFSGSGSGTDFTLTISSLQPEDFATYYCQGTYLSSNWYWAFGTGTKVTVLGGGGGSQVQLQESGPGLVKPSETLSLTCKVSGFSFSSGYDMCWIRQPPGKGLEWIGCVVAGSVDITYYASWAKGRVTISVDSSKNQFSLKLSSVTAADTAVYYCARKDAYSDAFNLWGQGTLVTVSSGGGGSGGGGSVVMTQSPSSLSASVGDRVTITCQASQIISSRSAWYQQKPGQPPKLLIYQASKLASGVPSRFSGSGSGTDFTLTISSLQPEDFATYYCQCTYIDSNFGAFGGGTKLTVLGGGGGSGGGGSGGGGSGGGGSEVQLVESGGGLVQPGGSLRLSCAASGFSFSSSYWICWVRQAPGKGLEWVGCVFTGDGTTYYASWAKGRFTISRDNSKNTVYLQMNSLRAEDTATYFCARPVSVYYYGMDLWGQGTLVTVSS
notes: Trispecific scTriabody (scDb-scFv)
B5: PRO966 (= PRO1052): 38_27_C05 sc01 scDb-i/33-03-G02 sc01 scDb-o/19-01-H04-sc03 scFv (other)
chain: DIQMTQSPSSLSASVGDRVTITCQASQSINDYLAWYQQKPGKAPKLLIYKASTLASGVPSRFSGSGSGTDFTLTISSLQPEDFATYYCQQGYIITDIDNVFGTGTKVTVLGGGGGSQVQLQESGPGLVKPSETLSLTCKVSGFSFNNDYDMCWIRQPPGKGLEWIGCIDTGDGSTYYASWAKGRVTISVDSSKNQFSLKLSSVTAADTAVYYCAREAASSSGYGMGYFDLWGQGTLVTVSSGGGGSGGGGSGGGGSGGGGSIQMTQSPSSLSASVGDRVTITCQSSQSVYDNNWLAWYQQKPGKAPKLLIYRASNLASGVPSRFSGSGSGTDFTLTISSLQPEDFATYYCQGTYLSSNWYWAFGTGTKVTVLGGGGGSQVQLQESGPGLVKPSETLSLTCKVSGFSFSSGYDMCWIRQPPGKGLEWIGCVVAGSVDITYYASWAKGRVTISVDSSKNQFSLKLSSVTAADTAVYYCARKDAYSDAFNLWGQGTLVTVSSGGGGSGGGGSIQMTQSPSSLSASVGDRVTITCQSSESVYSNNQLSWYQQKPGQPPKLLIYDASDLASGVPSRFSGSGSGTDFTLTISSLQPEDFATYYCAGGFSSSSDTAFGGGTKLTVLGGGGGSGGGGSGGGGSGGGGSEVQLVESGGGLVQPGGSLRLSCAASGFSLSSNAMGWVRQAPGKGLEYIGIISVGGFTYYASWAKGRFTISRDNSKNTVYLQMNSLRAEDTATYFCARDRHGGDSSGAFYLWGQGTLVTVSS
notes: as for B4
B6: PRO997 (anti-PD-L1 scFv, CDR set of clone 37-20-B03 grafted on a VH4 framework) (scFv)
chain: DIQMTQSPSSLSASVGDRVTITCQASQSIGTYLAWYQQKPGKAPKLLIYRAFILASGVPSRFSGSGSGTDFTLTISSLQPEDFATYYCQSNFYSDSTTIGPNAFGTGTKVTVLGGGGGSGGGGSGGGGSGGGGSQVQLQESGPGLVKPSETLSLTCKVSGFSFNSDYWIYWIRQPPGKGLEWIGSIYGGSSGNTQYASWAQGRVTISVDSSKNQFSLKLSSVTAADTAVYYCARGYVDYGGATDLWGQGTLVTVSS

Experiments:
[1] = molecular target: T1, biotinylated human PD-L1 (human, UniProt Q9NZQ7 19-238, limits assumed, biotinylated); assay: competition ELISA; coated human PD-1 as competitor; biotinylated human PD-L1 pre-incubated with inhibitor
T1 construct: also called biotinylated PD-L1

[2] = molecular target: T2, human PD-L1 expressed on cells (human, UniProt Q9NZQ7 19-290); assay: cell-based or functional assay
[3] = molecular target: T3, human CD137 expressed on cells (human, UniProt Q07011 24-255); assay: cell-based or functional assay
[4] = molecular target: T3, human CD137 expressed on cells; assay: cell-based or functional assay; remark: listed apart in the source
[5] = molecular target: T1, biotinylated human PD-L1; assay: competition ELISA; coated human B7.1 as competitor; biotinylated PD-L1 pre-incubated with inhibitor
[6] = molecular target: T3, human CD137 expressed on cells; assay: cell-based or functional assay; remark: listed apart in the source
[7] = molecular target: T3, human CD137 expressed on cells; assay: cell-based or functional assay; remark: listed apart in the source
[8] = molecular target: T3, human CD137 expressed on cells; assay: cell-based or functional assay; remark: listed apart in the source
[9] = molecular target: T3, human CD137 expressed on cells; assay: cell-based or functional assay; remark: listed apart in the source
[10] = molecular target: T3, human CD137 expressed on cells; assay: cell-based or functional assay; remark: listed apart in the source
[11] = molecular target: T3, human CD137 expressed on cells; assay: cell-based or functional assay; remark: listed apart in the source
[12] = molecular target: T3, human CD137 expressed on cells; assay: cell-based or functional assay; remark: listed apart in the source
[13] = molecular target: T3, human CD137 expressed on cells; assay: cell-based or functional assay; remark: listed apart in the source
[14] = molecular target: human PD-L1-Fc chimeric protein (human, UniProt Q9NZQ7 19-239); assay: SPR (Biacore T200); PD-L1-Fc captured by anti-human Fc
[15] = molecular target: T4, human serum albumin (human, UniProt P02768 25-609); assay: SPR (Biacore T200); SA amine-coupled; pH 5.5
T4 construct: Amine-coupled to a CM5 chip; assay at pH 5.5; also called HSA; human SA

[16] = molecular target: T2, human PD-L1 expressed on cells; assay: cell-based or functional assay; remark: listed apart in the source

Row | Binder | IC50 [1] | IC50 (ng/ml), neutralization of PD-L1/PD-1 interaction, NFAT-luciferase reporter gene assay [2] | max. activation (%), NF-kB reporter gene, CHO-PD-L1; HSA: no [3] | EC50 in ng/ml, CD137 activation, NFkB-luciferase Jurkat reporter assay, CHO-PD-L1 cells [4] | IC50 [5] | EC50 in ng/ml, CD137 activation, NFkB-luciferase Jurkat reporter assay, HCC827 with IFNy stimulation, 24h [6] | EC50 in ng/ml, CD137 activation, NFkB-luciferase Jurkat reporter assay, HCC827 without IFNy stimulation, 24h [6] | EC50 in ng/ml, CD137 activation, NFkB-luciferase Jurkat reporter assay, HCC827 cells without IFNg [7] | EC50 in ng/ml, CD137 activation, NFkB-luciferase Jurkat reporter assay, CHO-PD-L1 cells [8] | EC50 in ng/ml, CD137 activation, NFkB-luciferase Jurkat reporter assay, HCC827 cells stimulated with IFNg [10] | EC50 in ng/ml, CD137 activation, NFkB-luciferase Jurkat reporter assay, PD-L1 expressing CHO cells, 24h [11] | EC50 in ng/ml, CD137 activation, NFkB-luciferase Jurkat reporter assay, PD-L1 expressing CHO cells, 24h, + HSA [11] | EC50 in ng/ml, CD137 activation, NFkB-luciferase Jurkat reporter assay, PD-L1 expressing CHO cells, 6h [13] | EC50 in ng/ml, CD137 activation, NFkB-luciferase Jurkat reporter assay, PD-L1 expressing CHO cells, 6h, + HSA [13] | binding result [14] | binding result [15] | further results
1 | B1 | 0.0095 µg/mL | 88.5 ng/mL | 432% | 33.7 ng/mL | 0.0093 µg/mL | – | – | – | – | – | – | – | – | – | – | – | –
2 | B2 | 0.00835 µg/mL | 137 ng/mL | 499% | 11.7 ng/mL | 0.0122 µg/mL | 7.51 ng/mL | 9.52 ng/mL | 11.5 ng/mL and 13.1 ng/mL and 13 ng/mL | 5.13 ng/mL and 4.86 ng/mL and 6.3 ng/mL | 9.27 ng/mL and 8.88 ng/mL and 9.23 ng/mL | 13.8 ng/mL | 14.8 ng/mL | 7.84 ng/mL | 7.92 ng/mL | – | – | max. activation (%), NF-kB reporter gene, HCC827 +IFNg; HSA: no [3]: 134%; max. activation (%), NF-kB reporter gene, HCC827 -IFNg; HSA: no [3]: 111%; EC50 (ng/ml), IL-2 secretion by PBMC; anti-CD3 1 ug/ml, 50000 PD-L1 expressing CHO cells/well [9]: 12.8 ng/mL; EC50 (ng/ml), IL-2 secretion by PBMC; anti-CD3 1 ug/ml, 100000 PD-L1 expressing CHO cells/well [9]: 86.2 ng/mL; EC50 (ng/ml), IL-2 secretion by PBMC; anti-CD3 1 ug/ml, 200000 PD-L1 expressing CHO cells/well [9]: 80.6 ng/mL; EC50 (ng/ml), IL-2 secretion by PBMC; anti-CD3 2 ug/ml, 50000 PD-L1 expressing CHO cells/well [9]: 52 ng/mL; EC50 (ng/ml), IL-2 secretion by PBMC; anti-CD3 2 ug/ml, 100000 PD-L1 expressing CHO cells/well [9]: 41.9 ng/mL; EC50 (ng/ml), IL-2 secretion by PBMC; anti-CD3 2 ug/ml, 200000 PD-L1 expressing CHO cells/well [9]: 30.1 ng/mL; EC50 in ng/ml, IL-2 secretion, PBMC stimulated with SEA [12]: 39.9 ng/mL
3 | B3 | – | – | – | 79.1 ng/mL | – | 52.8 ng/mL | 47.5 ng/mL | 212 ng/mL and 110 ng/mL and 112 ng/mL | 79.5 ng/mL and 104 ng/mL and 86.5 ng/mL | 114 ng/mL and 145 ng/mL and 108 ng/mL | 46.6 ng/mL | 78.2 ng/mL | 56.5 ng/mL | 77.7 ng/mL | – | – | –
4 | B4 | – | – | – | – | – | – | – | – | – | – | – | 121 ng/mL | – | 70.9 ng/mL | binds | binds | max. activation (%), NF-kB reporter gene, CHO-PD-L1; HSA: yes, 24h [3]: 36.2%
5 | B5 | – | – | – | – | – | – | – | – | – | – | – | – | – | – | binds | binds | –
6 | B6 | 0.0005 µg/mL | 11.1 ng/mL | – | – | 0.00636 µg/mL | – | – | – | – | – | – | – | – | – | – | – | fold higher affinity against the STR graft of clone 33-03-G02 [14]: ~2 fold; EC50 in ng/ml, IL-2 secretion, PBMC stimulated with SEA [16]: 40.9 ng/mL
